Measured values as given in PMC9242648.

T1: human regulatory light chain (MYL2), P10916
T1 chain: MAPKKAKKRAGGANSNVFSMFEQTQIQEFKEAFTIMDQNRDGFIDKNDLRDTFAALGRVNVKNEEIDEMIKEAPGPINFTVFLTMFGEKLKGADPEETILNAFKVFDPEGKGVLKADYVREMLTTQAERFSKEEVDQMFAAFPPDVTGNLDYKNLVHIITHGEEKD


Legend:
[1] = target: human essential light chain (MYL3), P08590; assay: Coomassie SDS-PAGE gel-based light chain loading assay; conditions: chain shown with the change;; read off a plot
[2] = target: T1, human regulatory light chain (MYL2), …; assay: as above; conditions: chain shown with the change;; read off a plot

human essential light chain (MYL3), P08590, sequence (P08590 whole entry): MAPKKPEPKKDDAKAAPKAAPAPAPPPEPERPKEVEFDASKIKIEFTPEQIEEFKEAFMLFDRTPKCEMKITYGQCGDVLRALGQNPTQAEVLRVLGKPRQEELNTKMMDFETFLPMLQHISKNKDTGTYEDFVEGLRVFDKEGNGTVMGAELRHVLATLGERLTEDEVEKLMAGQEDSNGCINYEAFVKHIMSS

Row | ratio to parent [1] | ratio to parent [2] | Binder
1 | 0.96 | 0.97 | human β-cardiac myosin 2-hep heavy chain, wild type A797T (protein) MGDSEMAVFGAAAPYLRKSEKERLEAQTRPFDLKKDVFVPDDKQEFVKAKIVSREGGKVTAETEYGKTVTVKEDQVMQQNPPKFDKIEDMAMLTFLHEPAVLYNLKDRYGSWMIYTYSGLFCVTVNPYKWLPVYTPEVVAAYRGKKRSEAPPHIFSISDNAYQYMLTDRENQSILITGESGAGKTVNTKRVIQYFAVIAAIGDRSKKDQSPGKGTLEDQIIQANPALEAFGNAKTVRNDNSSRFGKFIRIHFGATGKLASADIETYLLEKSRVIFQLKAERDYHIFYQILSNKKPELLDMLLITNNPYDYAFISQGETTVASIDDAEELMATDNAFDVLGFTSEEKNSMYKLTGAIMHFGNMKFKLKQREEQAEPDGTEEADKSAYLMGLNSADLLKGLCHPRVKVGNEYVTKGQNVQQVIYATGALAKAVYERMFNWMVTRINATLETKQPRQYFIGVLDIAGFEIFDFNSFEQLCINFTNEKLQQFFNHHMFVLEQEEYKKEGIEWTFIDFGMDLQACIDLIEKPMGIMSILEEECMFPKATDMTFKAKLFDNHLGKSANFQKPRNIKGKPEAHFSLIHYAGIVDYNIIGWLQKNKDPLNETVVGLYQKSSLKLLSTLFANYAGADAPIEKGKGKAKKGSSFQTVSALHRENLNKLMTNLRSTHPHFVRCIIPNETKSPGVMDNPLVMHQLRCNGVLEGIRICRKGFPNRILYGDFRQRYRILNPAAIPEGQFIDSRKGAEKLLSSLDIDHNQYKFGHTKVFFKAGLLGLLEEMRDERLSRIITRIQAQSRGVLTRMEYKKLLERRDSLLVIQWNIRAFMGVKNWPWMKLYFKIKPLLKSAEREKEMASMKEELEDKVEELLSKNYHLENEVARL
2 | 1.1 | 1.2 | human β-cardiac myosin 2-hep heavy chain, wild type S782N (protein) MGDSEMAVFGAAAPYLRKSEKERLEAQTRPFDLKKDVFVPDDKQEFVKAKIVSREGGKVTAETEYGKTVTVKEDQVMQQNPPKFDKIEDMAMLTFLHEPAVLYNLKDRYGSWMIYTYSGLFCVTVNPYKWLPVYTPEVVAAYRGKKRSEAPPHIFSISDNAYQYMLTDRENQSILITGESGAGKTVNTKRVIQYFAVIAAIGDRSKKDQSPGKGTLEDQIIQANPALEAFGNAKTVRNDNSSRFGKFIRIHFGATGKLASADIETYLLEKSRVIFQLKAERDYHIFYQILSNKKPELLDMLLITNNPYDYAFISQGETTVASIDDAEELMATDNAFDVLGFTSEEKNSMYKLTGAIMHFGNMKFKLKQREEQAEPDGTEEADKSAYLMGLNSADLLKGLCHPRVKVGNEYVTKGQNVQQVIYATGALAKAVYERMFNWMVTRINATLETKQPRQYFIGVLDIAGFEIFDFNSFEQLCINFTNEKLQQFFNHHMFVLEQEEYKKEGIEWTFIDFGMDLQACIDLIEKPMGIMSILEEECMFPKATDMTFKAKLFDNHLGKSANFQKPRNIKGKPEAHFSLIHYAGIVDYNIIGWLQKNKDPLNETVVGLYQKSSLKLLSTLFANYAGADAPIEKGKGKAKKGSSFQTVSALHRENLNKLMTNLRSTHPHFVRCIIPNETKSPGVMDNPLVMHQLRCNGVLEGIRICRKGFPNRILYGDFRQRYRILNPAAIPEGQFIDSRKGAEKLLSSLDIDHNQYKFGHTKVFFKAGLLGLLEEMRDERLNRIITRIQAQSRGVLARMEYKKLLERRDSLLVIQWNIRAFMGVKNWPWMKLYFKIKPLLKSAEREKEMASMKEELEDKVEELLSKNYHLENEVARL
3 | 1 | 1.1 | human β-cardiac myosin 2-hep heavy chain, wild type F834L (protein) MGDSEMAVFGAAAPYLRKSEKERLEAQTRPFDLKKDVFVPDDKQEFVKAKIVSREGGKVTAETEYGKTVTVKEDQVMQQNPPKFDKIEDMAMLTFLHEPAVLYNLKDRYGSWMIYTYSGLFCVTVNPYKWLPVYTPEVVAAYRGKKRSEAPPHIFSISDNAYQYMLTDRENQSILITGESGAGKTVNTKRVIQYFAVIAAIGDRSKKDQSPGKGTLEDQIIQANPALEAFGNAKTVRNDNSSRFGKFIRIHFGATGKLASADIETYLLEKSRVIFQLKAERDYHIFYQILSNKKPELLDMLLITNNPYDYAFISQGETTVASIDDAEELMATDNAFDVLGFTSEEKNSMYKLTGAIMHFGNMKFKLKQREEQAEPDGTEEADKSAYLMGLNSADLLKGLCHPRVKVGNEYVTKGQNVQQVIYATGALAKAVYERMFNWMVTRINATLETKQPRQYFIGVLDIAGFEIFDFNSFEQLCINFTNEKLQQFFNHHMFVLEQEEYKKEGIEWTFIDFGMDLQACIDLIEKPMGIMSILEEECMFPKATDMTFKAKLFDNHLGKSANFQKPRNIKGKPEAHFSLIHYAGIVDYNIIGWLQKNKDPLNETVVGLYQKSSLKLLSTLFANYAGADAPIEKGKGKAKKGSSFQTVSALHRENLNKLMTNLRSTHPHFVRCIIPNETKSPGVMDNPLVMHQLRCNGVLEGIRICRKGFPNRILYGDFRQRYRILNPAAIPEGQFIDSRKGAEKLLSSLDIDHNQYKFGHTKVFFKAGLLGLLEEMRDERLSRIITRIQAQSRGVLARMEYKKLLERRDSLLVIQWNIRAFMGVKNWPWMKLYLKIKPLLKSAEREKEMASMKEELEDKVEELLSKNYHLENEVARL
